We go through 1 substance from publication PMC12737151, “Systematic Development and Characterization of Enzyme-Free, Borax-Crosslinked Microneedles for Glucose-Responsive Insulin Delivery and In Vivo Glycemic Mitigation” (Pharmaceutics, 2025).

Data set [1] deals with STZ-diabetic mice. More on the design: species or system C57BL/6J mice. Conditions: mouse, in vivo; SD.
Method: (§1) Male C57BL/6J mice, 56–70 days old (8–10 weeks) and weighing 23–28 g at allocation, were housed under standard conditions with ad libitum access to food and water. Type 1 diabetes was induced by intraperitoneal streptozotocin (55 mg kg^−1 daily for 5 days). Mice with fasting plasma glucose (FPG) > 300 mg·dL^−1 were considered diabetic and enrolled. […] Animals were randomized to groups with allocation concealment; outcome assessors were blinded to treatment. […] Animals were housed at 22 ± 2 °C, 45–65% RH under a 12 h light/12 h dark cycle with environmental enrichment (nesting material), standard chow and water ad libitum. For blood sampling and patch application, brief isoflurane anesthesia was used (Materials). Humane endpoints: >20% body-weight loss from baseline, persistent FPG > 600 mg·dL^−1 despite treatment, or any severe distress prompted euthanasia per IACUC policy.
Patches were applied to a shaved dorsal skin site and secured with a semi-occlusive film. […] The nominal dose was calculated based on this area ratio:[Nominal IU per mini-patch] = (Mean IU per full patch) × (mini-patch area/full patch active area).
An intravenous glucose-tolerance test (IVGTT) was performed 2–4 h post-application by administering an IV bolus of dextrose (0.7 g·kg^−1). PGL and plasma insulin were monitored for 0–60 min post-bolus.
On the set-up of data set [2]: species or system C57BL/6J mice. Conditions: mouse, in vivo; SD. As to the method: Pharmacokinetics. Serial blood samples were collected following sI-MN application or SC insulin dosing. Plasma insulin concentrations were quantified by ELISA (4-PL; appropriate plasma dilution; internal QCs and spike-recovery within 80–120%). Noncompartmental analysis (NCA) yielded Cmax, tmax, and AUC over the reported interval, and terminal half-life (t1/2). […] AUCs were calculated by the linear-up/linear-down trapezoidal rule.
patches (related to Section 2.2.3).
Mechanical Robustness — Single-Needle Fracture
compression at constant speed. Fracture point was identified from force–
displacement traces. Per-array mean ± SD and overall CV were computed.
ICC(1,1) (related to Section 2.2.4).
ELISA Validation — Patch Extract Matrices
ELISA sample diluent to fall within the validated range. For in-vitro release,
corner wells avoided to minimize edge effects. Carryover was checked by
placing an LLOQ well immediately after the ULOQ well. Matrix effect and
120% recovery and CV ≤15% (≤20% at LLOQ). Content (IU per patch) was
human insulin (≈28.8 IU·mg⁻¹). All ELISA-derived masses were converted
accordingly before IU normalizatio. Uniformity was summarized as mean ±
ELISA Validation — Mouse Plasma (PK)
inverted, and kept on wet ice.
specified visual criterion) were excluded. Samples were diluted 1:5–1:20 in kit
Selectivity against endogenous
mouse insulin was ensured per manufacturer documentation (cross-reactivity
<0.1%) and confirmed by blank plasma < LLOQ. Stability was verified for
14 days (≥90%). PK outputs per animal included observed Cmax, Tmax, AUC₀–
regression), and t½ = ln2/λz.
ICP–MS Validation — Boron Leaching
Ventures (Christiansburg, VA, USA). External calibration used 0–100 µg·L⁻¹
standards (matrix-matched), with R² ≥ 0.99 required. A rinse of 2% HNO₃ for
daily for five consecutive days.
dose and prior to glycemic assessments as applicable. Fasting plasma glucose
were excluded per pre-specified rules. All animal procedures complied with
and conformed to ARRIVE guidelines.

The conditions of data set [3]: mouse, in vivo; SD.
Method: Terminal blood (or blood under anesthesia where permitted) was collected into
serum tubes, allowed to clot for 20–30 min at room temperature, and
centrifuged at 2,000 g for 10 min. Serum was analyzed the same day on an
automated clinical chemistry analyzer available in our facility (reagent kits
from Thermo Fisher Scientific, Waltham, MA, USA, or Roche Diagnostics,
Indianapolis, IN, USA, as applicable), or stored at 4 °C for <6 h before testing.
Laboratory reference intervals for C57BL/6J were considered during
interpretation: AST 35–80 U·L⁻¹, ALT 25–60 U·L⁻¹, urea 5–9 mmol·L⁻¹, and
creatinine 25–60 µmol·L⁻¹ (ranges may vary by laboratory). Hemolyzed
samples were excluded per pre-specified criteria. Statistical analyses followed
the main text (normality by Shapiro–Wilk, variance homogeneity by Levene,
one-way ANOVA with Tukey post hoc; α = 0.05).
Data set [4] deals with STZ-diabetic mice. The data set is described as follows: Intraperitoneal glucose-tolerance test (IPGTT). The format is in vivo, C57BL/6J mice. The following applies: 30 min after 1.5 g·kg^−1 glucose i.p., 4 h post-treatment, mean ± SD, n = 8.
Method: Male C57BL/6J mice, 56–70 days old (8–10 weeks) and weighing 23–28 g at allocation, were housed under standard conditions with ad libitum access to food and water. Type 1 diabetes was induced by intraperitoneal streptozotocin (55 mg kg^−1 daily for 5 days). Mice with fasting plasma glucose (FPG) > 300 mg·dL^−1 were considered diabetic and enrolled. […] Animals were randomized to groups with allocation concealment; outcome assessors were blinded to treatment. […] For blood sampling and patch application, brief isoflurane anesthesia was used (Materials).
Patches were applied to a shaved dorsal skin site and secured with a semi-occlusive film. The nominal dose for mouse studies (0.05–0.20 IU) was delivered using “mini-patches” (Ø 3–5 mm) punched from larger, fully characterized patches (Ø 15 mm). The nominal dose was calculated based on this area ratio:[Nominal IU per mini-patch] = (Mean IU per full patch) × (mini-patch area/full patch active area).
IPGTT. An intraperitoneal glucose-tolerance test (IPGTT) was performed 4 h post-application by administering an IP bolus of glucose (1.5 g·kg^−1). PGL and plasma insulin were monitored for 0–120 min, and the AUC0–120 was calculated.
The subject of data set [5] is STZ-diabetic mice. The data set is described as follows: Baseline efficacy 0–12 h: plasma glucose and plasma insulin. The class given is in vivo, C57BL/6J mice. Conditions: basal monitoring, mean ± SD, n = 8.
Method: as §1
Treatments and Dosing. […] The nominal dose was calculated based on this area ratio:[Nominal IU per mini-patch] = (Mean IU per full patch) × (mini-patch area/full patch active area).
Baseline Efficacy (0–12/24 h). Plasma glucose levels (PGLs) were monitored for 12–24 h using a glucometer. Plasma insulin was quantified by ELISA at selected timepoints. The area under the curve (AUC0–12/24) was calculated to assess overall glycemic control.

As usually defined, the Tmax is the time at which the peak concentration occurs. In the data set on STZ-diabetic mice [1], recombinant human insulin [SC insulin] registered an IVGTT plasma insulin of 5.4 ± 0.4 ng/mL. Further, in data set [2], the “AUC0–12h” value is 192 ± 11 ng·h/mL, the Tmax is given as 1.0 ± 0.1 h and the “t½ (terminal half-life)” value came to 2.64 ± 0.12 h. In data set [3], this substance registered an AST of 48.2 ± 6.7 U·L⁻¹ and a Creatinine of 39.4 ± 2.5 µmol/L. Further, the “IPGTT peak glycemia (maximal group mean at 30 min)” value in the data set on STZ-diabetic mice [4] was 272 ± 17 mg/dL. In the data set with STZ-diabetic mice [5] (0 h, dose-matched SC vs patch (nominal 0.05–0.20 IU)), the “Plasma glucose (PGL)” value was 344 ± 16 mg/dL. In the data set with STZ-diabetic mice [5] (12 h, dose-matched), the “Plasma glucose (PGL)” value came to 220 ± 30 mg/dL.
